Reference: the supplement of paper PMC12067230
± gives the uncertainty stated by the source.

B1: F-15-T; numbered along this chain (parent)
chain: EASNCFAIRHFENKFAVETLICFNLFLNSQEKHY

Variants of: B1
Assay: amyloid nucleation score relative to WT ADan (yeast Sup35 reporter selection) (log enrichment difference); higher = more amyloid nucleation
Procedure: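 Deep mutational scan of the ADan peptide fused to the Sup35 nucleation domain (SupN) in S. cerevisiae [psi-pin-], covering all single amino-acid substitutions and stop truncations (truncations = sequence up to the stop). After 24 h Cu2+ induction, cells were selected on -ADE-URA plates for 7 d at 30 °C. The nucleation score is log enrichment (output/input, deep sequencing) minus that of WT ADan, as the error-weighted mean of 3 biological replicates (DiMSum).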

Row | Variant | amyloid nucleation score
1 | EASNCFAIRHFENKTAVETLICFNLFLNSQEKHY | -0.00209 ± 0.12
2 | EASNCFAIRHFENKYAVETLICFNLFLNSQEKHY | 0.0276 ± 0.12
3 | EASNCFAIRHFENKCAVETLICFNLFLNSQEKHY | -0.147 ± 0.14
4 | EASNCFAIRHFENKQAVETLICFNLFLNSQEKHY | -0.502 ± 0.18
5 | EASNCFAIRHFENKVAVETLICFNLFLNSQEKHY | 0.0927 ± 0.095
6 | EASNCFAIRHFENKMAVETLICFNLFLNSQEKHY | 0.405 ± 0.14
7 | EASNCFAIRHFENKWAVETLICFNLFLNSQEKHY | -1.15 ± 0.19
8 | EASNCFAIRHFENKAAVETLICFNLFLNSQEKHY | 0.534 ± 0.14
9 | EASNCFAIRHFENKIAVETLICFNLFLNSQEKHY | 0.203 ± 0.13
10 | EASNCFAIRHFENKKAVETLICFNLFLNSQEKHY | -1.37 ± 0.17
11 | EASNCFAIRHFENKPAVETLICFNLFLNSQEKHY | 0.782 ± 0.18
12 | EASNCFAIRHFENKDAVETLICFNLFLNSQEKHY | -2.5 ± 0.25
13 | EASNCFAIRHFENKLAVETLICFNLFLNSQEKHY | -0.25 ± 0.085
14 | EASNCFAIRHFENKHAVETLICFNLFLNSQEKHY | -2.51 ± 0.26
15 | EASNCFAIRHFENKRAVETLICFNLFLNSQEKHY | -2.18 ± 0.14
16 | EASNCFAIRHFENKSAVETLICFNLFLNSQEKHY | -0.453 ± 0.099
17 | EASNCFAIRHFENKNAVETLICFNLFLNSQEKHY | -0.337 ± 0.14
18 | EASNCFAIRHFENKGAVETLICFNLFLNSQEKHY | 0.818 ± 0.089
19 | EASNCFAIRHFENKEAVETLICFNLFLNSQEKHY | -2.18 ± 0.19
20 | EASNCFAIRHFENCFAVETLICFNLFLNSQEKHY | 0.65 ± 0.11
21 | EASNCFAIRHFENTFAVETLICFNLFLNSQEKHY | 0.665 ± 0.1
22 | EASNCFAIRHFENAFAVETLICFNLFLNSQEKHY | 0.253 ± 0.096
23 | EASNCFAIRHFENDFAVETLICFNLFLNSQEKHY | 0.152 ± 0.13
24 | EASNCFAIRHFENSFAVETLICFNLFLNSQEKHY | 0.341 ± 0.075

Row | Variant | amyloid nucleation score
25 | EASNCFAIRHFENEFAVETLICFNLFLNSQEKHY | 0.00624 ± 0.12
26 | EASNCFAIRHFENNFAVETLICFNLFLNSQEKHY | 0.701 ± 0.12
27 | EASNCFAIRHFENVFAVETLICFNLFLNSQEKHY | 0.207 ± 0.08
28 | EASNCFAIRHFENPFAVETLICFNLFLNSQEKHY | 0.000567 ± 0.15
29 | EASNCFAIRHFENMFAVETLICFNLFLNSQEKHY | 0.629 ± 0.11
30 | EASNCFAIRHFENFFAVETLICFNLFLNSQEKHY | 0.137 ± 0.11
31 | EASNCFAIRHFENIFAVETLICFNLFLNSQEKHY | 0.391 ± 0.12
32 | EASNCFAIRHFENGFAVETLICFNLFLNSQEKHY | -0.903 ± 0.091
33 | EASNCFAIRHFENYFAVETLICFNLFLNSQEKHY | 0.185 ± 0.11
34 | EASNCFAIRHFENWFAVETLICFNLFLNSQEKHY | 0.0928 ± 0.12
35 | EASNCFAIRHFENQFAVETLICFNLFLNSQEKHY | 0.601 ± 0.13
36 | EASNCFAIRHFENRFAVETLICFNLFLNSQEKHY | -0.195 ± 0.084
37 | EASNCFAIRHFENLFAVETLICFNLFLNSQEKHY | 0.488 ± 0.073
38 | EASNCFAIRHFENHFAVETLICFNLFLNSQEKHY | 1.04 ± 0.14
39 | EASNCFAIRHFVNKFAVETLICFNLFLNSQEKHY | -2.02 ± 0.12
40 | EASNCFAIRHFGNKFAVETLICFNLFLNSQEKHY | -0.627 ± 0.087
41 | EASNCFAIRHFANKFAVETLICFNLFLNSQEKHY | -0.733 ± 0.12
42 | EASNCFAIRHFINKFAVETLICFNLFLNSQEKHY | -3.73 ± 0.52
43 | EASNCFAIRHFMNKFAVETLICFNLFLNSQEKHY | -1.67 ± 0.21
44 | EASNCFAIRHFWNKFAVETLICFNLFLNSQEKHY | -2.66 ± 0.22
45 | EASNCFAIRHFPNKFAVETLICFNLFLNSQEKHY | 0.357 ± 0.16
46 | EASNCFAIRHFLNKFAVETLICFNLFLNSQEKHY | -2.5 ± 0.15
47 | EASNCFAIRHFRNKFAVETLICFNLFLNSQEKHY | -0.892 ± 0.097
48 | EASNCFAIRHFKNKFAVETLICFNLFLNSQEKHY | -0.108 ± 0.15

Row | Variant | amyloid nucleation score
49 | EASNCFAIRHFCNKFAVETLICFNLFLNSQEKHY | -0.751 ± 0.14
50 | EASNCFAIRHFQNKFAVETLICFNLFLNSQEKHY | -0.321 ± 0.18
51 | EASNCFAIRHFYNKFAVETLICFNLFLNSQEKHY | -0.651 ± 0.15
52 | EASNCFAIRHFDNKFAVETLICFNLFLNSQEKHY | 0.334 ± 0.13
53 | EASNCFAIRHFFNKFAVETLICFNLFLNSQEKHY | -2.21 ± 0.2
54 | EASNCFAIRHFSNKFAVETLICFNLFLNSQEKHY | -0.259 ± 0.092
55 | EASNCFAIRHFTNKFAVETLICFNLFLNSQEKHY | -0.329 ± 0.15
56 | EASNCFAIRHFHNKFAVETLICFNLFLNSQEKHY | 0.13 ± 0.16
57 | EASNCFAIRHFNNKFAVETLICFNLFLNSQEKHY | -0.269 ± 0.14
58 | EASNCFAIRHFENKFDVETLICFNLFLNSQEKHY | 0.736 ± 0.15
59 | EASNCFAIRHFENKFCVETLICFNLFLNSQEKHY | 0.159 ± 0.14
60 | EASNCFAIRHFENKFEVETLICFNLFLNSQEKHY | 1.02 ± 0.13
61 | EASNCFAPRHFENKFAVETLICFNLFLNSQEKHY | 0.188 ± 0.15
62 | EASNCFATRHFENKFAVETLICFNLFLNSQEKHY | 0.634 ± 0.14
63 | EASNCFASRHFENKFAVETLICFNLFLNSQEKHY | 0.471 ± 0.09
64 | EASNCFARRHFENKFAVETLICFNLFLNSQEKHY | 0.781 ± 0.11
65 | EASNCFAWRHFENKFAVETLICFNLFLNSQEKHY | 0.464 ± 0.14
66 | EASNCFAVRHFENKFAVETLICFNLFLNSQEKHY | 0.0841 ± 0.1
67 | EASNCFAQRHFENKFAVETLICFNLFLNSQEKHY | 0.519 ± 0.23
68 | EASNCFAYRHFENKFAVETLICFNLFLNSQEKHY | 0.183 ± 0.14
69 | EASNCFAIRHFEMKFAVETLICFNLFLNSQEKHY | -0.696 ± 0.13
70 | EASNCFAIRHFETKFAVETLICFNLFLNSQEKHY | -0.39 ± 0.11
71 | EASNCFAIRHFEQKFAVETLICFNLFLNSQEKHY | 0.539 ± 0.16
